Test [1] addresses axolotl Melanocortin-3 receptor, N-terminally 3×HA tagged (Ambystoma mexicanum (Mexican axolotl)).
Test [2] deals with axolotl Melanocortin-4 receptor, N-terminally 3×HA tagged (Ambystoma mexicanum (Mexican axolotl)).

Regarding “human adrenocorticotropin ACTH (1–24) (peptide)”, in test [1], the cAMP luminescent assay (pCRE-Luc, Dual-Glo) in HEK293T, logEC50; MC3R:MRAP2 plasmid ratio 1:0 was -9.51 log M; the cAMP luminescent assay (pCRE-Luc, Dual-Glo) in HEK293T, logEC50; MC3R:MRAP2 plasmid ratio 1:1 was -9.47 log M; the cAMP luminescent assay (pCRE-Luc, Dual-Glo) in HEK293T, logEC50; MC3R:MRAP2 plasmid ratio 1:3 is -9.4 log M; the cAMP luminescent assay (pCRE-Luc, Dual-Glo) in HEK293T, logEC50; MC3R:MRAP2 plasmid ratio 1:6 was -9.55 log M. Further, in test [2], the cAMP luminescent assay (pCRE-Luc, Dual-Glo) in HEK293T, logEC50; MC4R:MRAP2 plasmid ratio 1:0 is -9.62 log M; the cAMP luminescent assay (pCRE-Luc, Dual-Glo) in HEK293T, logEC50; MC4R:MRAP2 plasmid ratio 1:1 was -10.1 log M; the cAMP luminescent assay (pCRE-Luc, Dual-Glo) in HEK293T, logEC50; MC4R:MRAP2 plasmid ratio 1:3 is -10.1 log M; the cAMP luminescent assay (pCRE-Luc, Dual-Glo) in HEK293T, logEC50; MC4R:MRAP2 plasmid ratio 1:6 is -10.3 log M.
On to “Human α-melanocyte stimulating hormone (peptide)”, for which, in test [1], the cAMP luminescent assay (pCRE-Luc, Dual-Glo) in HEK293T, logEC50; MC3R:MRAP2 plasmid ratio 1:0 was -9.95 log M; the cAMP luminescent assay (pCRE-Luc, Dual-Glo) in HEK293T, logEC50; MC3R:MRAP2 plasmid ratio 1:1 was -9.29 log M; the cAMP luminescent assay (pCRE-Luc, Dual-Glo) in HEK293T, logEC50; MC3R:MRAP2 plasmid ratio 1:3 was -9.04 log M; the cAMP luminescent assay (pCRE-Luc, Dual-Glo) in HEK293T, logEC50; MC3R:MRAP2 plasmid ratio 1:6 is -8.98 log M. Also, in test [2], the cAMP luminescent assay (pCRE-Luc, Dual-Glo) in HEK293T, logEC50; MC4R:MRAP2 plasmid ratio 1:0 is -9.84 log M; the cAMP luminescent assay (pCRE-Luc, Dual-Glo) in HEK293T, logEC50; MC4R:MRAP2 plasmid ratio 1:1 is -10 log M; the cAMP luminescent assay (pCRE-Luc, Dual-Glo) in HEK293T, logEC50; MC4R:MRAP2 plasmid ratio 1:3 is -9.37 log M; the cAMP luminescent assay (pCRE-Luc, Dual-Glo) in HEK293T, logEC50; MC4R:MRAP2 plasmid ratio 1:6 was -9.06 log M.
